Biological target: reconstituted elongation complex (EC): His-tagged E. coli RNAP core complex on template DNA, non-template DNA … (E. coli, Core RNAP assembled with biotinylated 49-mer template/non-template DNA and RNA primer (nucleic acid sequences in the supplement). The text gives only 'RNAP core complex' from pIA900; alpha2-beta-beta')
Sequence (A1AGI6 whole entry, chain 1 of 4): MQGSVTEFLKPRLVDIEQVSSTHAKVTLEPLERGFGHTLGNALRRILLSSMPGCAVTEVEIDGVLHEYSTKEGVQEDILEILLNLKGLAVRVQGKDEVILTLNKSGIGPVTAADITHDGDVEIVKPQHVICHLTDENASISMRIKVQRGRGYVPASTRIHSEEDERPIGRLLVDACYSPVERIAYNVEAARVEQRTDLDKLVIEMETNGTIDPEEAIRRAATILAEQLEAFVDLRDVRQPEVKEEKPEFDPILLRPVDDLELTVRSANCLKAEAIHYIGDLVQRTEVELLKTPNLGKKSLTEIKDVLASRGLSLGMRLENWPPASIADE
Sequence (A1AIF9 whole entry, chain 2 of 4, further chain): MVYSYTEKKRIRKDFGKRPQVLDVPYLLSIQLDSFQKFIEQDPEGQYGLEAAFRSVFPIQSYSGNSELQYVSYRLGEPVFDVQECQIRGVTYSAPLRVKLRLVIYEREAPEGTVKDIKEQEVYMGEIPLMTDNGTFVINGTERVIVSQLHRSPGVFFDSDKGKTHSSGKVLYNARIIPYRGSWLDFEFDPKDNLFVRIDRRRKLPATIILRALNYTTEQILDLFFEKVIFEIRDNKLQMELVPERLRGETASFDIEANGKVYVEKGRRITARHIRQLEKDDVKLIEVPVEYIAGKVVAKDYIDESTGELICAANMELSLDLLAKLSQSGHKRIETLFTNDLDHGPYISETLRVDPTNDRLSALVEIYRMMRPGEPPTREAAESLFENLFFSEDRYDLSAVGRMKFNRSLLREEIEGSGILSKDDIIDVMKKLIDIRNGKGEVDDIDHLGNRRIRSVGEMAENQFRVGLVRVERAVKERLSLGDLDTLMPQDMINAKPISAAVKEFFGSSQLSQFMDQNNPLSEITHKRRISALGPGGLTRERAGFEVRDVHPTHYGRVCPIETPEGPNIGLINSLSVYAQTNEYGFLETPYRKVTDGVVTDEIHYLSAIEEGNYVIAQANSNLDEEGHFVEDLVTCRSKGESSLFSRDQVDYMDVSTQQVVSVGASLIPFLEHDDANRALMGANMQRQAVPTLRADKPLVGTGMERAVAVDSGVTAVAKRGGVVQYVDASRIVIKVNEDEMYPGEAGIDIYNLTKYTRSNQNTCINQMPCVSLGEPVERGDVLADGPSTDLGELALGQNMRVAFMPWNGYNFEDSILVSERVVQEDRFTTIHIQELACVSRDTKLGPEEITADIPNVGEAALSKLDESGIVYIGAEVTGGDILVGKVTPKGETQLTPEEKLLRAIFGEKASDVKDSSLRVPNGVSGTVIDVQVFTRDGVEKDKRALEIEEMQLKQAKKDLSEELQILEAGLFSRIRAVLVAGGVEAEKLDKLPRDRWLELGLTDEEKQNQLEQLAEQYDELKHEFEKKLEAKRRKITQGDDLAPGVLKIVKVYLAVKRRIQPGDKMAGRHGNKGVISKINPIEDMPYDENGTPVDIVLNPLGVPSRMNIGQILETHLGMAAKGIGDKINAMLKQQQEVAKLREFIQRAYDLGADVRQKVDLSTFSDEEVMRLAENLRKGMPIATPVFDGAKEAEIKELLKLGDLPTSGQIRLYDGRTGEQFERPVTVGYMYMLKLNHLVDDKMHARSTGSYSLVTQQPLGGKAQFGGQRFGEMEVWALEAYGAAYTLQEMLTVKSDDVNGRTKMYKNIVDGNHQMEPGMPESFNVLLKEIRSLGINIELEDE
Sequence (A7ZUK2 whole entry, chain 3 of 4, further chain): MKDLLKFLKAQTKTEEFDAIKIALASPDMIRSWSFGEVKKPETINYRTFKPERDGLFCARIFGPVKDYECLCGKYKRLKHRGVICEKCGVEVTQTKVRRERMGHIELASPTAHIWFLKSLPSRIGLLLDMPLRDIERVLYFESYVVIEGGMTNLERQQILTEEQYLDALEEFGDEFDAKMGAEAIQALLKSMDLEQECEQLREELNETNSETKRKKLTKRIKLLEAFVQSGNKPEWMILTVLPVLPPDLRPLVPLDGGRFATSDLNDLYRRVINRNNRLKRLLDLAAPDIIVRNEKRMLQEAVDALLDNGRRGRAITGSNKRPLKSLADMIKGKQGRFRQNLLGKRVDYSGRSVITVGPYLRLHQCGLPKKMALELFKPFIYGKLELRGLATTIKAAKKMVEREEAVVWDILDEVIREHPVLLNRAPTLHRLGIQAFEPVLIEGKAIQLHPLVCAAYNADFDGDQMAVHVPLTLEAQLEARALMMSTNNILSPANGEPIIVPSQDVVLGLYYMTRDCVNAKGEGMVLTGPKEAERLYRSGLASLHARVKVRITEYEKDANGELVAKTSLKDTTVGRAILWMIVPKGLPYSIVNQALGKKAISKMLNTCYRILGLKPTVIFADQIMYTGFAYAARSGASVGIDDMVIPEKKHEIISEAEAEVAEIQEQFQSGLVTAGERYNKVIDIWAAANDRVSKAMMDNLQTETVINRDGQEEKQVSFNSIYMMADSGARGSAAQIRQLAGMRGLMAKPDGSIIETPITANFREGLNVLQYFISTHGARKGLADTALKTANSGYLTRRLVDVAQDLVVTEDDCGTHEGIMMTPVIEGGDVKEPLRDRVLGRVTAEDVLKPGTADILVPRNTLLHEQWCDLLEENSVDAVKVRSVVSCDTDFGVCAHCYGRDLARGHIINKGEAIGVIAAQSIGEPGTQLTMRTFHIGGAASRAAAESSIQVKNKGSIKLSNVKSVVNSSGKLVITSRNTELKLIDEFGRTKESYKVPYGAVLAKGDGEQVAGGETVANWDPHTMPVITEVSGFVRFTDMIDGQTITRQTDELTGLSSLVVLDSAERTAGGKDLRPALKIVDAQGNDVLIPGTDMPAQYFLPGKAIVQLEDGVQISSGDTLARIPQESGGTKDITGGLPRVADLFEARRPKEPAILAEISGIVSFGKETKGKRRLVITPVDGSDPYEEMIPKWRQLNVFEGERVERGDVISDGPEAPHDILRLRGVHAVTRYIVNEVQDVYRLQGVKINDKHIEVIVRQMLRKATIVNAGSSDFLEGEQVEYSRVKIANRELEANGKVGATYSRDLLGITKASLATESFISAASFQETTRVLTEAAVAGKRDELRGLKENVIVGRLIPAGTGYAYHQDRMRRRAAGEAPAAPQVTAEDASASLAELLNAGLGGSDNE
Sequence (A1AHI0 2-91, chain 4 of 4, further chain): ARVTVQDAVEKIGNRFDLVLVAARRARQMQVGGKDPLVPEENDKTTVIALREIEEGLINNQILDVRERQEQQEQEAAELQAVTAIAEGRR
Assay: SPR; BIAcore T200, SA chip; reconstituted EC on biotinylated 49-mer immobilised (550 RU after 1 M KCl wash); Mfd 0-640 nM flowed in SPR buffer (30 mM Tris/HCl pH 7.6, 40 mM KCl, 5 mM MgCl2, 0.005% P20, 0.25 mM EDTA, 0.5 mM DTT) with 0.5 mM ATPɣS; 20°C; 1:1 steady state affinity fit
Conditions: both partners purified

B1: Mfd, the bacterial transcription-repair coupling factor (wild type) (natural protein, E. coli, UniProt P30958 1-1148, looked up)
chain: MPEQYRYTLPVKAGEQRLLGELTGAACATLVAEIAERHAGPVVLIAPDMQNALRLHDEISQFTDQMVMNLADWETLPYDSFSPHQDIISSRLSTLYQLPTMQRGVLIVPVNTLMQRVCPHSFLHGHALVMKKGQRLSRDALRTQLDSAGYRHVDQVMEHGEYATRGALLDLFPMGSELPYRLDFFDDEIDSLRVFDVDSQRTLEEVEAINLLPAHEFPTDKAAIELFRSQWRDTFEVKRDPEHIYQQVSKGTLPAGIEYWQPLFFSEPLPPLFSYFPANTLLVNTGDLETSAERFQADTLARFENRGVDPMRPLLPPQSLWLRVDELFSELKNWPRVQLKTEHLPTKAANANLGFQKLPDLAVQAQQKAPLDALRKFLETFDGPVVFSVESEGRREALGELLARIKIAPQRIMRLDEASDRGRYLMIGAAEHGFVDTVRNLALICESDLLGERVARRRQDSRRTINPDTLIRNLAELHIGQPVVHLEHGVGRYAGMTTLEAGGITGEYLMLTYANDAKLYVPVSSLHLISRYAGGAEENAPLHKLGGDAWSRARQKAAEKVRDVAAELLDIYAQRAAKEGFAFKHDREQYQLFCDSFPFETTPDQAQAINAVLSDMCQPLAMDRLVCGDVGFGKTEVAMRAAFLAVDNHKQVAVLVPTTLLAQQHYDNFRDRFANWPVRIEMISRFRSAKEQTQILAEVAEGKIDILIGTHKLLQSDVKFKDLGLLIVDEEHRFGVRHKERIKAMRANVDILTLTATPIPRTLNMAMSGMRDLSIIATPPARRLAVKTFVREYDSMVVREAILREILRGGQVYYLYNDVENIQKAAERLAELVPEARIAIGHGQMRERELERVMNDFHHQRFNVLVCTTIIETGIDIPTANTIIIERADHFGLAQLHQLRGRVGRSHHQAYAWLLTPHPKAMTTDAQKRLEAIASLEDLGAGFALATHDLEIRGAGELLGEEQSGSMETIGFSLYMELLENAVDALKAGREPSLEDLTSQQTEVELRMPSLLPDDFIPDVNTRLSFYKRIASAKTENELEEIKVELIDRFGLLPDPARTLLDIARLRQQAQKLGIRKLEGNEKGGVIEFAEKNHVNPAWLIGLLQKQPQHYRLDGPTRLKFIQDLSERKTRIEWVRQFMRELEENAIA
notes: Mfd (transcription-repair coupling factor), E. coli; mfd gene without ypet inserted in vector pSH1017, plasmid pHG4137; called full-length Mfd in the cryo-EM section; No tag is stated; purified by conventional chromatography; In the SPR it was flowed with 0.5 mM ATPɣS; also called TRCF; wildtype Mfd; source: E. coli BL21(λDE3)recA, purified (ammonium sulfate, DEAE, heparin Sepharose)
Q: With B1 as the binder, how does the Kd read?
A: 127 ± 6 nM
